Assays:
MaAAO [1] = molecular target: T1, MaAAO (Moesziomyces antarcticus, UniProt A0A081CNK9); assay: UV/Vis spectrum of native and heat-denatured enzyme; type: binding; settings: non-covalently bound
T1 construct: gene PAN0_057d6495; expressed with native signal peptide, secreted from Pichia pastoris X-33 (pPICZA); purified; non-covalent FAD; codon-optimised synthetic gene
T1 sequence (A0A081CNK9 20-638): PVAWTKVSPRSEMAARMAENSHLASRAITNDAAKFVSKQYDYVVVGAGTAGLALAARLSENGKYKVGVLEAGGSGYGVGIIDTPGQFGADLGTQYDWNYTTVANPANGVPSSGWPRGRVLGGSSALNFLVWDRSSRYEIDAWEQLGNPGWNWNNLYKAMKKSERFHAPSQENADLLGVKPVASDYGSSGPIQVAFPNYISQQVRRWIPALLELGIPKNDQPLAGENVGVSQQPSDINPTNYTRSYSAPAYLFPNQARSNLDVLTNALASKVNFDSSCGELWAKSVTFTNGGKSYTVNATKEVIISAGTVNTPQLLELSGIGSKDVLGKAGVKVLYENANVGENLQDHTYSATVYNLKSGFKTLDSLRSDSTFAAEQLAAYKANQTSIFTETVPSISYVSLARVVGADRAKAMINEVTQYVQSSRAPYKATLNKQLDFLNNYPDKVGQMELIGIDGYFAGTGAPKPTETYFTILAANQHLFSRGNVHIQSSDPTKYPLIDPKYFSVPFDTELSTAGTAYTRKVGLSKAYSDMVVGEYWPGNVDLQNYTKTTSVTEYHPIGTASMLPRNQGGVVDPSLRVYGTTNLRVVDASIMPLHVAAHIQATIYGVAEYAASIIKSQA

MaAAO [2] = molecular target: T1, MaAAO; assay: benzaldehyde formation at […] nm; substrate excess inhibition fit; type: biochemical; settings: co-substrate O2, 100 mM phosphate pH 6.0, 25 °C
MaAAO [3] = molecular target: T1, MaAAO; assay: m-anisaldehyde formation at […] nm; substrate excess inhibition fit; type: biochemical; settings: co-substrate O2, 100 mM phosphate pH 6.0, 25 °C
MaAAO [4] = molecular target: T1, MaAAO; assay: coupled […],6-DMP-HRP assay; substrate excess inhibition fit; type: biochemical; settings: co-substrate O2, potassium phosphate pH 6.0, 25 °C
purified protein [5] = substrate: OC/C=C/c1ccccc1; assay: purified protein; type: biochemical, Moesziomyces antarcticus; settings: co-substrate O2, 100 mM phosphate pH 6.0, 25 °C
purified protein [6] = substrate: COc1ccc(CO)cc1OC; assay: purified protein; type: biochemical, Moesziomyces antarcticus; settings: co-substrate O2, 100 mM phosphate pH 6.0, 25 °C
purified protein [7] = substrate: COc1ccc(CO)c(OC)c1; assay: purified protein; type: biochemical, Moesziomyces antarcticus; settings: co-substrate O2, 100 mM phosphate pH 6.0, 25 °C
purified protein [8] = substrate: COc1ccc(CO)cc1O; assay: purified protein; type: biochemical, Moesziomyces antarcticus; settings: co-substrate O2, 100 mM phosphate pH 6.0, 25 °C
purified protein [9] = substrate: COc1cc(CO)ccc1O; assay: purified protein; type: biochemical, Moesziomyces antarcticus; settings: co-substrate O2, 100 mM phosphate pH 6.0, 25 °C
purified protein [10] = substrate: Nc1cccc(CO)c1; assay: purified protein; type: biochemical, Moesziomyces antarcticus; settings: co-substrate O2, 50 mM (text: 100 mM) potassium phosphate pH 6.0, 25 °C, fit with substrate excess inhibition
purified protein [11] = substrate: OCc1ccc2c(c1)OCO2; assay: purified protein; type: biochemical, Moesziomyces antarcticus; settings: co-substrate O2, 100 mM phosphate pH 6.0, 25 °C
purified protein [12] = substrate: C=C(C)[C@@H]1CC=C(CO)CC1; assay: purified protein; type: biochemical, Moesziomyces antarcticus; settings: co-substrate O2, 50 mM (text: 100 mM) potassium phosphate pH 6.0, 25 °C
purified protein [13] = substrate: OCc1ccccc1; assay: purified protein; type: biochemical, Moesziomyces antarcticus; settings: co-substrate O2, 100 mM phosphate pH 6.0, 25 °C, fit with substrate excess inhibition
purified protein [14] = substrate: O=Cc1ccc(CO)o1; assay: purified protein; type: biochemical, Moesziomyces antarcticus; settings: co-substrate O2, 50 mM (text: 100 mM) potassium phosphate pH 6.0, 25 °C
purified protein [15] = substrate: C/C=C/C=C/CO; assay: purified protein; type: biochemical, Moesziomyces antarcticus; settings: co-substrate O2, 100 mM phosphate pH 6.0, 25 °C

**Q.** Cc1cc2nc3c(=O)[nH]c(=O)nc-3n(C[C@H](O)[C@H](O)[C@H](O)COP(=O)(O)OP(=O)(O)OC[C@H]3O[C@@H](n4cnc5c(N)ncnc54)[C@H](O)[C@@H]3O)c2cc1C [FAD] was tested. Which “UV/Vis spectrum of native and heat-denatured enzyme” value (MaAAO [1]) did it give?
**A.** confirmed that MaAAO contains a non-covalently bound FAD cofactor

**Q.** How did the KIU (MaAAO [2]) turn out when OCc1ccccc1 [Benzyl alcohol] was run?
**A.** 1.39 ± 0.35 mM

**Q.** How did the KIU (MaAAO [3]) turn out when COc1cccc(CO)c1 [m-Anisyl alcohol] was run?
**A.** 2.09 ± 0.33 mM

**Q.** Nc1cccc(CO)c1 [3-Aminobenzyl alcohol] was tested. Which KIU (MaAAO [4]) did it give?
**A.** 3.27 ± 0.98 mM

B1: MaAAO (Moesziomyces antarcticus) (protein)
chain: PVAWTKVSPRSEMAARMAENSHLASRAITNDAAKFVSKQYDYVVVGAGTAGLALAARLSENGKYKVGVLEAGGSGYGVGIIDTPGQFGADLGTQYDWNYTTVANPANGVPSSGWPRGRVLGGSSALNFLVWDRSSRYEIDAWEQLGNPGWNWNNLYKAMKKSERFHAPSQENADLLGVKPVASDYGSSGPIQVAFPNYISQQVRRWIPALLELGIPKNDQPLAGENVGVSQQPSDINPTNYTRSYSAPAYLFPNQARSNLDVLTNALASKVNFDSSCGELWAKSVTFTNGGKSYTVNATKEVIISAGTVNTPQLLELSGIGSKDVLGKAGVKVLYENANVGENLQDHTYSATVYNLKSGFKTLDSLRSDSTFAAEQLAAYKANQTSIFTETVPSISYVSLARVVGADRAKAMINEVTQYVQSSRAPYKATLNKQLDFLNNYPDKVGQMELIGIDGYFAGTGAPKPTETYFTILAANQHLFSRGNVHIQSSDPTKYPLIDPKYFSVPFDTELSTAGTAYTRKVGLSKAYSDMVVGEYWPGNVDLQNYTKTTSVTEYHPIGTASMLPRNQGGVVDPSLRVYGTTNLRVVDASIMPLHVAAHIQATIYGVAEYAASIIKSQA
notes: expressed with native signal peptide, secreted from Pichia pastoris X-33 (pPICZA); purified; non-covalent FAD; codon-optimised synthetic gene
**Q.** Which results are given for B1?
**A.** Km (purified protein [5]): 26.9 µM; kcat (purified protein [5]): 8.9 s⁻¹; kcat/Km (purified protein [5]): 332000 M⁻¹ s⁻¹; Km (purified protein [6]): 119.0 ± 7.0 µM; kcat (purified protein [6]): 11.7 s⁻¹; kcat/Km (purified protein [6]): 98000 M⁻¹ s⁻¹; Km (purified protein [7]): 582 µM; Km (purified protein [8]): 60.9 ± 6.7 µM; kcat (purified protein [8]): 9.6 s⁻¹; kcat/Km (purified protein [8]): 158000 M⁻¹ s⁻¹; Km (purified protein [9]): 30.0 ± 2.4 µM; kcat (purified protein [9]): 10.6 s⁻¹; kcat/Km (purified protein [9]): 354000 M⁻¹ s⁻¹; Km (purified protein [10]): 1.74 ± 0.24 µM; kcat (purified protein [10]): 6.4 s⁻¹; kcat/Km (purified protein [10]): 3.67e+06 M⁻¹ s⁻¹; Km (purified protein [11]): 12.2 ± 1.0 µM; kcat (purified protein [11]): 11.3 s⁻¹; kcat/Km (purified protein [11]): 926000 M⁻¹ s⁻¹; Km (purified protein [12]): 23.7 ± 1.7 µM; kcat (purified protein [12]): 9.2 s⁻¹; kcat/Km (purified protein [12]): 387000 M⁻¹ s⁻¹; kcat (purified protein [13]): 11.2 s⁻¹; kcat/Km (purified protein [13]): 745000 M⁻¹ s⁻¹; Km (purified protein [14]): 341 ± 20 µM; kcat (purified protein [14]): 5.4 s⁻¹; kcat/Km (purified protein [14]): 15700 M⁻¹ s⁻¹; Km (purified protein [15]): 26.5 ± 1.7 µM; kcat (purified protein [15]): 11.5 s⁻¹; kcat/Km (purified protein [15]): 435000 M⁻¹ s⁻¹
